B1: Regulatory protein rop, P03051 (parent)
chain: MTKQEKTALNMARFIRSQTLTLLEKLNELDADEQADICESLHDHADELYRSCLARFGDDGENL

Variants of: B1
Settings: Escherichia coli, pH 6, Thermal, DSC, Sodium phosphate/Sodium sulfate 10 mM/10 mM/, reversible: yes, structure 1ROP, whole UniProt chain shown

Variant	ddG of mutation (higher = less stable) (25 °C)	heat capacity change of unfolding (25 °C)	unfolding free energy (25 °C)	Tm	change of melting temperature, mutant - wild type (higher = more stable)	heat capacity change of unfolding	unfolding enthalpy (calorimetric)	unfolding enthalpy (van 't Hoff)
MTKQEKTALNMARFIRSQTLTLLEKLNELDADEQADICESVHDHADELYRSCLARFGDDGENL [L41V]	2.53 kcal/mol	1.99 kcal/mol/K	14.6 kcal/mol	65.3 °C	-5.7 °C	1.99 kcal/mol/K	110 kcal/mol	114 kcal/mol
MTKQEKTALNMARFIRSQTLTLLEKLNELDADEQADICESAHDHADELYRSCLARFGDDGENL [L41A]	6.12 kcal/mol	1.65 kcal/mol/K	11 kcal/mol	52.9 °C	-18.1 °C	1.65 kcal/mol/K	80.1 kcal/mol	92.8 kcal/mol
